Among the targets are HLA-A*31:01; HLA-A*11:01; HLA-A*03:01; HLA-A*33:01; HLA-A*68:01.
Common to all, as to assay: IEDB peptide-MHC binding, purified MHC/competitive/radioactivity; filed as Kd, often an IC50 or EC50 that approximates it; ≥ and ≤ were set here for values at or beyond the usual limits of such assays
The mark [1] stands for this setting: source organism: Vaccinia virus WR.
The mark [2] stands for this setting: source organism: SARS coronavirus Tor2.
Where [3] appears, read: source organism: Dengue virus 2 Jamaica/1409/1983.
Setting [4] is: source organism: Dengue virus 1 Nauru/West Pac/1974.
[5] abbreviates: source organism: Mammarenavirus brazilense.
Where [6] appears, read: source organism: Dengue virus 4 Philippines/H241/1956.
Setting [7] is: source organism: Lymphocytic choriomeningitis virus (strain WE).
Where [8] appears, read: source organism: Lassa virus Josiah.

Turning to NFSIIELPY, the Kd with HLA-A*31:01 (setting [1]) is 6320 nM; with HLA-A*11:01 (setting [1]), 1070 nM; in the experiment with HLA-A*03:01 (setting [1]), 716 nM; with HLA-A*33:01 (setting [1]), ≥ 35000 nM; with HLA-A*68:01 (setting [1]), 3440 nM.
As to GLALYYPSAR, the Kd in the experiment with HLA-A*31:01 (setting [2]) was 993 nM; in the experiment with HLA-A*11:01 (setting [2]), 1120 nM; with HLA-A*03:01 (setting [2]), 226 nM; in the experiment with HLA-A*33:01 (setting [2]), 2840 nM; with HLA-A*68:01 (setting [2]), 89.8 nM.
KLCKNHAEK: the Kd in the experiment with HLA-A*31:01 (setting [1]) is 543 nM; with HLA-A*11:01 (setting [1]), 19.9 nM; with HLA-A*03:01 (setting [1]) it was 13 nM; with HLA-A*33:01 (setting [1]) it was ≥ 38700 nM; in the experiment with HLA-A*68:01 (setting [1]) it was 986 nM.
On to LLKYAGLTIK, for which the Kd came out at 1610 nM with HLA-A*31:01 (setting [1]); 162 nM with HLA-A*11:01 (setting [1]); 10.7 nM with HLA-A*03:01 (setting [1]); 14500 nM in the experiment with HLA-A*33:01 (setting [1]); 3150 nM with HLA-A*68:01 (setting [1]).
With KMSTDNAVY, the dissociation constant Kd with HLA-A*31:01 (setting [1]) was 9730 nM; in the experiment with HLA-A*11:01 (setting [1]) it was 182 nM; in the experiment with HLA-A*03:01 (setting [1]), 43.4 nM; in the experiment with HLA-A*33:01 (setting [1]) it was ≥ 77700 nM; with HLA-A*68:01 (setting [1]), 11600 nM.
With PSLEYGANY, the Kd with HLA-A*31:01 (setting [1]) was ≥ 10000 nM; with HLA-A*11:01 (setting [1]) it was ≥ 21700 nM; with HLA-A*03:01 (setting [1]) it was 17100 nM; with HLA-A*33:01 (setting [1]), 7940 nM; in the experiment with HLA-A*68:01 (setting [1]), ≥ 60600 nM.
On to LFDFVNEKY, for which the Kd with HLA-A*31:01 (setting [1]) was ≥ 30000 nM; with HLA-A*11:01 (setting [1]), ≥ 48700 nM; in the experiment with HLA-A*03:01 (setting [1]) it was ≥ 78000 nM; with HLA-A*33:01 (setting [1]), ≥ 77700 nM; in the experiment with HLA-A*68:01 (setting [1]), ≥ 26100 nM.
On to QLKLNWFKK, for which the Kd with HLA-A*03:01 (setting [3]) is 134 nM.
On to VLDIISSKQY, for which the Kd with HLA-A*31:01 (setting [1]) stood at 518 nM; with HLA-A*11:01 (setting [1]) it was 9680 nM; in the experiment with HLA-A*03:01 (setting [1]), 601 nM; with HLA-A*33:01 (setting [1]), 1430 nM; with HLA-A*68:01 (setting [1]) it was 1390 nM.
STVSQLAKR: the Kd with HLA-A*31:01 (setting [4]) was ≥ 77900 nM; with HLA-A*68:01 (setting [4]), 9.66 nM.
As for GIFLFLMSGK, the equilibrium dissociation constant (Kd) was 549 nM with HLA-A*11:01 (setting [3]) and 85.5 nM with HLA-A*03:01 (setting [3]).
Consider SCMVNHSTYY, for which the Kd in the experiment with HLA-A*31:01 (setting [5]) is 7410 nM; with HLA-A*11:01 (setting [5]) it was 16700 nM; with HLA-A*03:01 (setting [5]), 100 nM; with HLA-A*33:01 (setting [5]), 8990 nM; with HLA-A*68:01 (setting [5]) it was 15900 nM.
In the case of ETTILDVDLR, in the experiment with HLA-A*68:01 (setting [6]), the Kd was found to be 45 nM.
As for DYEVDEDIFR, in the experiment with HLA-A*33:01 (setting [6]), the Kd amounted to 471 nM.
As to YMVTDKTAY, the Kd in the experiment with HLA-A*31:01 (setting [1]) is ≥ 47800 nM; in the experiment with HLA-A*11:01 (setting [1]), ≥ 26200 nM; in the experiment with HLA-A*03:01 (setting [1]) it was ≥ 33700 nM; with HLA-A*33:01 (setting [1]) it was ≥ 44300 nM; with HLA-A*68:01 (setting [1]) it was ≥ 40900 nM.
For GFCIPSRSK, in that order: 179 nM, 1900 nM, 973 nM, ≥ 77700 nM and ≥ 38600 nM.
QSQMLLIVLK: the Kd with HLA-A*31:01 (setting [2]) turned out to be 1410 nM; with HLA-A*11:01 (setting [2]) it was 10.8 nM; in the experiment with HLA-A*03:01 (setting [2]) it was 1620 nM; with HLA-A*33:01 (setting [2]) it was 11700 nM; with HLA-A*68:01 (setting [2]), 207 nM.
Take YTHGIVFDGK: the Kd with HLA-A*31:01 (setting [1]) came out at 156 nM; with HLA-A*11:01 (setting [1]), 8.46 nM; with HLA-A*03:01 (setting [1]), 7.46 nM; in the experiment with HLA-A*33:01 (setting [1]) it was 350 nM; in the experiment with HLA-A*68:01 (setting [1]), 4.56 nM.
As for SAYLISIFLH, the Kd was 250 nM with HLA-A*31:01 (setting [7]); 5450 nM with HLA-A*11:01 (setting [7]); 668 nM in the experiment with HLA-A*03:01 (setting [7]); 874 nM with HLA-A*33:01 (setting [7]); ≥ 30900 nM in the experiment with HLA-A*68:01 (setting [7]).
Consider FITKEIKNR, for which the Kd was 3590 nM with HLA-A*31:01 (setting [1]); ≥ 77900 nM with HLA-A*11:01 (setting [1]); ≥ 78000 nM with HLA-A*03:01 (setting [1]); 6040 nM in the experiment with HLA-A*33:01 (setting [1]); 276 nM with HLA-A*68:01 (setting [1]).
As to ENAVWDQYK, the Kd in the experiment with HLA-A*31:01 (setting [8]) is ≥ 22500 nM; in the experiment with HLA-A*11:01 (setting [8]), 6640 nM; with HLA-A*03:01 (setting [8]) it was 12600 nM; with HLA-A*33:01 (setting [8]), 958 nM; with HLA-A*68:01 (setting [8]), 42.9 nM.
